Measured values published in patent US20180207259A1.

Target: 92UG037.8-gp140-Fd (HIV-1 primary isolate 92UG037.8 (clade A))
Test: surface plasmon resonance

How did the Kd turn out when monoclonal antibody (mAb) 2G12 was run?
Its Kd is 17.9 nM.
